Paper PMC4650713 (2015)

Target: BaxΔC21 (UniProt Q07812 1-171, C62S | C126S)
Experiment: SPR

Chain of BaxΔC21 (Q07812 1-171 C62S/C126S): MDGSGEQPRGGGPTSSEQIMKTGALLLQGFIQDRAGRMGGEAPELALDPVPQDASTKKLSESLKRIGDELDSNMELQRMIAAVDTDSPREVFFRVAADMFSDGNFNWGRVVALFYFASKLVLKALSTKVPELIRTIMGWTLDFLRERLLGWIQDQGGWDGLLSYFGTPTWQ

Row | IC50 | Binder
1 | 306 nM | SESQEDIIRNIARHLAQVGDSMDRSIPPGLVNGL [BidBH3 peptide]
2 | 41 nM | SESQEDIIRNIARHLRQVGDSMDRSIPPGLVNGL [BidBH3 A91R]
